The series deals with PleI restriction endonuclease (Pseudomonas lemoignei). The series can be described thus: cleavage_in_vitro. The note with it: approximate yield of recombinant PleI; five of six clones active; recognition site not given.

“DNA substrate with PleI sites (sequence not stated)”: the activity (units/gram of cells) stood at 100000.

The record behind these values is US6391608.
